The text below walks through data of patent US20110118447A1.

Positions count from the first letter of the chain named. Numbers in names are those of the source.

B1: C5A (XPA23) VH S30R (antibody, V domains shown)
VH: EVQLLESGGGLVQPGGSLRLSCAASGFTFRKYFMFWVRQAPGKGLEWVSVISPSGGMTRYADSVKGRFTISRDNSKNTLYLQMNSLRAEDTAVYYCARVGYGGNSDYWGQGTLVTVSS
VL: DIQMTQSPSSVSASVGDRLTIICRASQDINRWLAWYQQTPGNAPKLLIHSATSLQSGVPSRFSGSGSGTDFTLTINSLQPEDFATYYCQQADSFPLTFGGGTKVEIK
B2: C5A (XPA23) VL D92L (antibody, V domains shown)
VH: B1 VH with R30S
VL: B1 VL with D92L
B3: C5A (XPA23) VH Y32E (antibody, V domains shown)
VH: B1 VH with R30S, Y32E
VL: B1 VL
B4: C5A (XPA23) VH S30N (antibody, V domains shown)
VH: B1 VH with R30N
VL: B1 VL
B5: C5A (XPA23) VH Y32T (antibody, V domains shown)
VH: B1 VH with R30S, Y32T
VL: B1 VL
B6: C5A (XPA23) VL P95A (antibody, V domains shown)
VH: B1 VH with R30S
VL: B1 VL with P95A
B7: C5A (XPA23) VL D92F (antibody, V domains shown)
VH: B1 VH with R30S
VL: B1 VL with D92F
B8: C5A (XPA23) VL S93A (antibody, V domains shown)
VH: B1 VH with R30S
VL: B1 VL with S93A
B9: C5A (XPA23) VL S93L (antibody, V domains shown)
VH: B1 VH with R30S
VL: B1 VL with S93L
B10: C5A (XPA23) VL F94P (antibody, V domains shown)
VH: B1 VH with R30S
VL: B1 VL with F94P
B11: C5A (XPA23) VH Y32N (antibody, V domains shown)
VH: B1 VH with R30S, Y32N
VL: B1 VL
B12: C5A (XPA23) VL A91L (antibody, V domains shown)
VH: B1 VH with R30S
VL: B1 VL with A91L
B13: C5A (XPA23) VH K31D (antibody, V domains shown)
VH: B1 VH with R30S, K31D
VL: B1 VL
B14: C5A (XPA23) VH Y32S (antibody, V domains shown)
VH: B1 VH with R30S, Y32S
VL: B1 VL
B15: C5A (XPA23) VL L96A (antibody, V domains shown)
VH: B1 VH with R30S
VL: B1 VL with L96A
B16: C5A (XPA23) VL A91V (antibody, V domains shown)
VH: B1 VH with R30S
VL: B1 VL with A91V
B17: C5A (XPA23) VL S93V (antibody, V domains shown)
VH: B1 VH with R30S
VL: B1 VL with S93V
B18: C5A (XPA23) VH K31R (antibody, V domains shown)
VH: B1 VH with R30S, K31R
VL: B1 VL
B19: C5A (XPA23) VL L96I (antibody, V domains shown)
VH: B1 VH with R30S
VL: B1 VL with L96I
B20: C5A (XPA23) VL S93G (antibody, V domains shown)
VH: B1 VH with R30S
VL: B1 VL with S93G
B21: C5A (XPA23) VL F94V (antibody, V domains shown)
VH: B1 VH with R30S
VL: B1 VL with F94V
B22: C5A (XPA23) VL L96W (antibody, V domains shown)
VH: B1 VH with R30S
VL: B1 VL with L96W
B23: C5A (XPA23) VL S53P (antibody, V domains shown)
VH: B1 VH with R30S
VL: B1 VL with S53P
B24: C5A (XPA23) VH Y32H (antibody, V domains shown)
VH: B1 VH with R30S, Y32H
VL: B1 VL
B25: C5A (XPA23) VH K31Y (antibody, V domains shown)
VH: B1 VH with R30S, K31Y
VL: B1 VL
B26: C5A (XPA23) VL D92I (antibody, V domains shown)
VH: B1 VH with R30S
VL: B1 VL with D92I
B27: C5A (XPA23) VL S93I (antibody, V domains shown)
VH: B1 VH with R30S
VL: B1 VL with S93I
B28: C5A (XPA23) VH K31H (antibody, V domains shown)
VH: B1 VH with R30S, K31H
VL: B1 VL
B29: C5A (XPA23) VL D92W (antibody, V domains shown)
VH: B1 VH with R30S
VL: B1 VL with D92W
B30: C5A (XPA23) VL S93W (antibody, V domains shown)
VH: B1 VH with R30S
VL: B1 VL with S93W
B31: C5A (XPA23) VL F94L (antibody, V domains shown)
VH: B1 VH with R30S
VL: B1 VL with F94L
B32: C5A (XPA23) VL S53W (antibody, V domains shown)
VH: B1 VH with R30S
VL: B1 VL with S53W
B33: C5A (XPA23) VL S93F (antibody, V domains shown)
VH: B1 VH with R30S
VL: B1 VL with S93F
B34: C5A (XPA23) VH S30T (antibody, V domains shown)
VH: B1 VH with R30T
VL: B1 VL
B35: C5A (XPA23) VL D92A (antibody, V domains shown)
VH: B1 VH with R30S
VL: B1 VL with D92A
B36: C5A (XPA23) VL D92G (antibody, V domains shown)
VH: B1 VH with R30S
VL: B1 VL with D92G
B37: C5A (XPA23) VL P95F (antibody, V domains shown)
VH: B1 VH with R30S
VL: B1 VL with P95F
B38: C5A (XPA23) VL L96F (antibody, V domains shown)
VH: B1 VH with R30S
VL: B1 VL with L96F
B39: C5A (XPA23) VH Y32D (antibody, V domains shown)
VH: B1 VH with R30S, Y32D
VL: B1 VL
B40: C5A (XPA23) VL F94I (antibody, V domains shown)
VH: B1 VH with R30S
VL: B1 VL with F94I

The first assay has as its target binding partner of C5A (XPA23). Put plainly: Biacore K-off. (In general: SPR reads the build-up and loss of mass on a sensor chip optically.)
For the molecule B1, the fold difference in affinity vs original stood at 0.1 fold. Turning to B2, the fold difference in affinity vs original was 0.14 fold. Still for that read-out and setting: the value for B3 was 0.12 fold. On the same count and under the same terms, the same measure for B4: 0.15 fold. The same measure, in the same setting: the same measure for B5: 0.8 fold; for B6: 3.83 fold.

With B7, the fold difference in affinity vs original came out at 0.26 fold. On to B8, for which the fold difference in affinity vs original worked out at 1.16 fold. For B9, the fold difference in affinity vs original stood at 1.08 fold. Still for that read-out and setting: the same measure for B10: 0.17 fold.

In the case of B11, the fold difference in affinity vs original worked out at 0.04 fold.

For B12, the fold difference in affinity vs original was 0.39 fold. As to B13, the fold difference in affinity vs original stood at 0.04 fold. On the same count and under the same terms, the same measure for B14: 1.33 fold; for B15: 0.26 fold. Turning to B16, the fold difference in affinity vs original stood at 0.51 fold. As for B17, the fold difference in affinity vs original was 3.81 fold.

With B18, the fold difference in affinity vs original came to 0.9 fold. In the case of B19, the fold difference in affinity vs original stood at 0.67 fold. Still for that read-out and setting: the same measure for B20: 0.75 fold; for B21: 0.2 fold; for B22: 4.49 fold. Take B23: the fold difference in affinity vs original was determined as 4.92 fold.

On to B24, for which the fold difference in affinity vs original came out at 0.62 fold. Still for that read-out and setting: the same measure for B25: 0.04 fold; for B26: 0.33 fold. On the same count and under the same terms, the same measure for B27: 1.35 fold; for B28: 1.11 fold. The same measure, in the same setting: the same measure for B29: 0.12 fold. For B30, the fold difference in affinity vs original was 5.49 fold. The same measure, in the same setting: the value for B31 was 0.55 fold; that for B32 was 1.11 fold. Still for that read-out and setting: the same measure for B33: 1.32 fold; for B34: 0.06 fold. With B35, the fold difference in affinity vs original was 0.4 fold. Still for that read-out and setting: the same measure for B36: 0.26 fold; for B37: 0.98 fold. For the molecule B38, the fold difference in affinity vs original is 0.28 fold.

As for B39, the fold difference in affinity vs original worked out at 0.68 fold. With B40, the fold difference in affinity vs original worked out at 0.88 fold.

A further assay concerns the target binding partner of C5A (XPA23). Put plainly: Biacore.
On to B1, for which the fold affinity vs original turned out to be 0.1 fold. Turning to B3, the fold affinity vs original stood at 0.12 fold. B4: the fold affinity vs original was 0.15 fold. B5: the fold difference in affinity vs original stood at 0.8 fold. Turning to B11, the fold affinity vs original came out at 0.04 fold. For B13, the fold affinity vs original amounted to 0.04 fold. In the case of B14, the fold affinity vs original is 1.33 fold. For B18, the fold affinity vs original is 0.9 fold. As to B24, the fold affinity vs original amounted to 0.62 fold. Same read-out and setting: the same measure for B25: 0.04 fold; for B28: 1.11 fold. As for B34, the fold difference in affinity vs original is 0.06 fold.

Take B39: the fold affinity vs original turned out to be 0.68 fold.
